Residue numbers refer to the chain shown, from its start. Names and notes keep the numbering of the source.
B1: CPA.9.059 hIgG4 (antibody, V domains shown)
VH: EVQLVETGGGLIQPGGSLRLSCAASGFTVSSNYMSWVRQAPGKGLEWVSVIYSGGSTYYADSVKGRFTISRDNSKNTLYLQMNSLRAEDTAVYYCARGARYSYGQYPYWGQGTLVTVSS
VL: DIQLTQSPSFLSASVGDRVTITCRASHDISSLFSWYQQKPGKAPKLLIYAASTLQTGVPSRFSGSASGTEFTLTISSLQPEDFATYYCLQLDSFPTWTFGQGTKVEIKR
notes: phage-derived anti-TIGIT, human IgG4; also called CPA.9.059-H4
B2: human TIGIT on cells (receptor)
chain: MMTGTIETTGNISAEKGGSIILQCHLSSTTAQVTQVNWEQQDQLLAICNADLGWHISPSFKDRVAPGPGLGLTLQSLTVNDTGEYFCIYHTYPDGTYTGRIFLEVLESSVAEHGARFQIP
notes: also called Expi293 human TIGIT over-expressing cells
B3: CHA.9.543 (antibody, V domains shown)
VH: EVQLQQSGPELVKPGASMKISCKASGYSFTGYTMNWVRQSHGKNLEWLGLIFPYNGGTSYNQNFKGKATLTVDTSSSTAYMELLSLTSVDSAVYYCARGVRFALDYWGQGTSVSVSS
VL: DVVMTQTPLSLPVSFGDQVSISCRSSQSLANSYGNTYLSWYLHKPGQSPQLLIYEISNRFSGVPDRFSGSGSGTDFTLNISTIKPEDLGMYYCLQGTHQPWTFGGGTKLEIKR
B4: CPA.9.086.H4(S241P) (antibody, human IgG4 S228P, lambda, V domains shown)
VH: EVQLVETGGGLIQPGRSLRLSCAASGFTFSSYAMHWVRQAPGKGLEWVAVISYAGEVKYYADSVKGRFTISRDNSKNTLYLQMNSLRAEDTAVYYCARDPLPLHYYGMDVWGQGTTVTVSS
VL: QSALTQPRSASGNPGQRVTISCSGSSSNMGRRPVNWYQQIPGTAPKLLIYSQNQRPSGVPDRFSGSQSGTSASLTISGLQSEDEAEYFCAVWDDIGRVLQLGGGTQLAVLG
B5: CPA.9.083 reformatted as mouse IgG1 (antibody, V domains shown)
VH: B4 VH with A54D, E56T, V57P, K58V
VL: B4 VL with D94G, I95D, G96R, V98S
notes: also called CPA.9.083 mIgG1
B6: CPA.9.086 reformatted as mouse IgG1 (antibody, V domains shown)
VH: B4 VH
VL: B4 VL
notes: also called CPA.9.086 mIgG1

Experiments:
[1] = target: T1, human TIGIT ECD with C-terminal polyhistidine tag (human, UniProt Q495A1 22-141); experiment: SPR (ProteOn), mAb captured, human TIGIT injected
T1 construct: in-house or Sino Biological; also called hTIGIT-HIS; human TIGIT-HIS
T1 sequence: B2 chain

Cyno TIGIT-His [2] = target: T2, Cyno TIGIT-His; experiment: SPR (ProteOn), mAb captured, cyno TIGIT monomer injected
T2 construct: also called cyno TIGIT monomer (prepared in-house); C-terminal HIS-tagged cyno TIGIT ECD recombinant protein
T2 sequence (ECD with C-terminal His tag, as listed by the source): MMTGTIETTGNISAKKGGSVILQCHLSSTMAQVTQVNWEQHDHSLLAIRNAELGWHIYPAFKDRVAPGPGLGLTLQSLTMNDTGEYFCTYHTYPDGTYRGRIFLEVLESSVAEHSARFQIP

human TIGIT on cells [3] = target: B2; experiment: FACS KD on Expi293 human TIGIT over-expressing cells; ± 95% CI of the fit
human TIGIT on cells [4] = target: B2; experiment: FACS blocking: Expi293 human TIGIT cells pre-incubated with mAb, then human PVR-m2aFc; lower gMFI = more blocking
[5] = target: T3, human PVR-h1Fc (Sino Biological #10109-H20H) (human, UniProt P15151 21-343); experiment: FACS titration on Expi293 human TIGIT over-expressing cells (gMFI OE:Parental); ± 95% CI; 'Fit: Fair'
T3 construct: bought; also called hPVR-hFc; Sino PVR-Fc
T3 sequence (looked up): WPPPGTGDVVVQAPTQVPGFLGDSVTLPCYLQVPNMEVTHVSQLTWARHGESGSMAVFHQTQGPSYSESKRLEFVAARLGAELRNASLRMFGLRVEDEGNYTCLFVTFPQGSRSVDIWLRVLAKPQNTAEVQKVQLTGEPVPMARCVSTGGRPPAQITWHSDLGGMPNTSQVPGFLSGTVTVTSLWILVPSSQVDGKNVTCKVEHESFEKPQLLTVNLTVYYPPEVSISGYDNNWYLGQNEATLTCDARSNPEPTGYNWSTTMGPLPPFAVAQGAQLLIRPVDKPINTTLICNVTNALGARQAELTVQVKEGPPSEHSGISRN

cyno TIGIT on cells [6] = target: T4, cyno TIGIT on cells (cynomolgus macaque); experiment: FACS KD on Expi293 cyno TIGIT over-expressing cells; ± 95% CI of the fit
T4 construct: whole, on cells; also called Expi293 cyno TIGIT over-expressing cells

Cyno TIGIT-His [7] = target: T2, Cyno TIGIT-His; experiment: SPR (ProteOn), mAb captured, cyno TIGIT monomer injected; kd of this row held constant
Cyno TIGIT-His [8] = target: T2, Cyno TIGIT-His; experiment: SPR (ProteOn), Cyno TIGIT-His
[9] = target: T1, human TIGIT ECD with C-terminal …; experiment: SPR (ProteOn), Human TIGIT-His
Mouse TIGIT-His = target: T5, Mouse TIGIT-His (mouse, UniProt P86176); experiment: SPR (ProteOn), Mouse TIGIT-His
T5 construct: also called mouse TIGIT monomer (prepared in-house)
T5 sequence (soluble monomer with His tag, looked up): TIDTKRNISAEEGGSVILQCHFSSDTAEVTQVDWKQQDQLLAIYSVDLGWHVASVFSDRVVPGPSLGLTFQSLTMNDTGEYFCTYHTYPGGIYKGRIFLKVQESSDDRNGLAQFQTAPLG

[10] = target: T1, human TIGIT ECD with C-terminal …; experiment: KinExA equilibrium, His-tagged human TIGIT, n = 1
[11] = target: T1, human TIGIT ECD with C-terminal …; experiment: KinExA equilibrium, His-tagged human TIGIT, n = 2
human TIGIT on cells [12] = target: B2; experiment: FACS titration of AF647-labelled mAb on human effector memory CD8+ T cells, Donor 321
human TIGIT on cells [13] = target: B2; experiment: FACS titration of AF647-labelled mAb on human effector memory CD8+ T cells, Donor 322
human TIGIT on cells [14] = target: B2; experiment: FACS titration of AF647-labelled mAb on human effector memory CD8+ T cells, Donor 334
cyno TIGIT on cells [15] = target: T4, cyno TIGIT on cells; experiment: FACS titration on cyno TIGIT OE Expi293 cells, binding site concentration; ± 95% CI; 'Fit: Good'
human TIGIT on cells [16] = target: B2; experiment: FACS titration on human TIGIT OE Expi293 cells, binding site concentration; ± 95% CI; 'Fit: Good/Excellent'
human TIGIT on cells [17] = target: B2; experiment: FACS blocking of human PVR-m2aFc binding to human TIGIT OE Expi293 cells; binding site concentration; n=1
human TIGIT on cells [18] = target: B2; experiment: FACS blocking of human PVR-m2aFc binding to human TIGIT OE Expi293 cells; binding site concentration; n=2
cyno TIGIT on cells [19] = target: T4, cyno TIGIT on cells; experiment: FACS titration of AF647-labelled mAb on cyno effector memory CD8+ T cells, Cyno Donor 1; isotype gMFI subtracted
cyno TIGIT on cells [20] = target: T4, cyno TIGIT on cells; experiment: FACS titration of AF647-labelled mAb on cyno effector memory CD8+ T cells, Cyno Donor 3; isotype gMFI subtracted
mouse TIGIT on cells = target: T6, mouse TIGIT on cells (mouse, UniProt P86176 29-249); experiment: FACS titration of AF647-labelled mAb on mouse CD4+CD25+Foxp3+ Tregs from Renca tumors; no unit beside the value, nM taken from the axis (binding site)
T6 construct: whole, on cells; also called mouse TIGIT over-expressing HEK cells; mouse Tregs
T6 sequence (looked up): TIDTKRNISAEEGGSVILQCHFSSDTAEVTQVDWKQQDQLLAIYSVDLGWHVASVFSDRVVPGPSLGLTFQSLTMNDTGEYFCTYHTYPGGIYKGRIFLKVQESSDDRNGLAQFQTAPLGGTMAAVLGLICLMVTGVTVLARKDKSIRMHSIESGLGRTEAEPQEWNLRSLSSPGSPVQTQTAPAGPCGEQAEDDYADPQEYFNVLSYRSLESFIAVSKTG

B1
Kd [1]: 21.3 pM
binding result (Cyno TIGIT-His [2]): binds
Kd (human TIGIT on cells [3]): 290 pM
gMFI of bound PVR-m2aFc at 266 pM mAb (human TIGIT on cells [4]): 509
gMFI of bound PVR-m2aFc at 1.3 nM mAb (human TIGIT on cells [4]): 262
gMFI of bound PVR-m2aFc at 6.7 nM mAb (human TIGIT on cells [4]): 209

B2
Kd [5]: 10000 pM

B3
Kd [1]: 23.1 pM
Kd (cyno TIGIT on cells [6]): 17200 pM
Kd (human TIGIT on cells [3]): 10200 pM
Kd (Cyno TIGIT-His [7]): 1.55 pM

B4
binding result (Cyno TIGIT-His [8]): binds
Kd [9]: 2.3 pM
Kd (Mouse TIGIT-His): 663 pM
Kd [10]: 0.553 pM
Kd [11]: 0.665 pM
Kd (human TIGIT on cells [12]): 90 pM
Kd (human TIGIT on cells [13]): 110 pM
Kd (human TIGIT on cells [14]): 130 pM
Kd (cyno TIGIT on cells [15]): 300 pM
Kd (human TIGIT on cells [16]): 350 pM
IC50 (human TIGIT on cells [17]): 360 pM
IC50 (human TIGIT on cells [18]): 180 pM
Kd (cyno TIGIT on cells [19]): 430 pM
Kd (cyno TIGIT on cells [20]): 980 pM

B5
Kd (mouse TIGIT on cells): 400 pM

B6
Kd (mouse TIGIT on cells): 680 pM

Reference: patent US20240075137A1 (COMPUGEN, published 2024)
